The RNAGym collection of RNA variant scans (doi:10.1093/molbev/msab373)

B1: Azoarcus group I ribozyme (parent)
chain: GUGCCUUGCGCCGGGAAACCACGCAAGGGAUGGUGUCAAAUUCGGCGAAACCUAAGCGCCCGCCCGGGCGUAUGGCAACGCCGAGCCAAGCUUCGGCGCCUGCGCCGAUGAAGGUGUAGAGACUAGACGGCACCCACCUAAGGCAAACGCUAUGGUGAAGGCAUAGUCCAGGGAGUGGCGAAAGUCACACAAACCGG

Variants of: B1
Experiment: reverse-splicing fitness (ratio to wild type); higher = more active; in vitro selection; Mg2+ level not given
How it was run: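 An in vitro group I ribozyme library with randomized positions was T7-transcribed and gel-purified. In triplicate, 10 pmol RNA in EPPS pH 7.5 was reacted with 50 pmoles of a 30-nt RNA substrate for 1 h at 37 °C across several added MgCl2 levels (1–48 mM), then stopped with EDTA. Products were reverse transcribed from a substrate-complementary primer, PCR-amplified and sequenced (HiSeq 4000). Fitness is a variant's read proportion after selection over that before, normalised to wild type.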

Row | Variant | reverse-splicing fitness
1 | A145C C169G | 0.26
2 | A145C C169G U176A | 0.0744
3 | A145C C169G U176C | 0.116
4 | A145C C169G U176G | 0.00875
5 | A145C C169U | 0.351
6 | A145C C169U U176A | 0.106
7 | A145C C169U U176C | 0.156
8 | A145C C169U U176G | 0.0117
9 | A145C U176A | 0.767
10 | A145C U176C | 0.843
11 | A145C U176G | 0.411
12 | A145G | 0.958
13 | A145G C150A | 0.582
14 | A145G C150A C169A | 0.0304
15 | A145G C150A C169A U176A | 0.0203
16 | A145G C150A C169A U176C | 0.031
17 | A145G C150A C169A U176G | 0.00608
18 | A145G C150A C169G | 0.0594
19 | A145G C150A C169G U176A | 0.0321
20 | A145G C150A C169G U176C | 0.0517
21 | A145G C150A C169G U176G | 0.00527

Row | Variant | reverse-splicing fitness
22 | A145G C150A C169U | 0.0924
23 | A145G C150A C169U U176A | 0.0484
24 | A145G C150A C169U U176C | 0.0583
25 | A145G C150A C169U U176G | 0.00772
26 | A145G C150A U176A | 0.472
27 | A145G C150A U176C | 0.464
28 | A145G C150A U176G | 0.184
29 | A145G C150G | 0.48
30 | A145G C150G C169A | 0.0272
31 | A145G C150G C169A U176A | 0.0133
32 | A145G C150G C169A U176C | 0.0194
33 | A145G C150G C169A U176G | 0.00779
34 | A145G C150G C169G | 0.0446
35 | A145G C150G C169G U176A | 0.014
36 | A145G C150G C169G U176C | 0.0156
37 | A145G C150G C169G U176G | 0.00608
38 | A145G C150G C169U | 0.0734
39 | A145G C150G C169U U176A | 0.0192
40 | A145G C150G C169U U176C | 0.0454
41 | A145G C150G C169U U176G | 0.00808
42 | A145G C150G U176A | 0.256

Row | Variant | reverse-splicing fitness
43 | A145G C150G U176C | 0.371
44 | A145G C150G U176G | 0.0658
45 | A145G C150U | 0.93
46 | A145G C150U C169A | 0.136
47 | A145G C150U C169A U176A | 0.0281
48 | A145G C150U C169A U176C | 0.0527
49 | A145G C150U C169A U176G | 0.00628
50 | A145G C150U C169G | 0.239
51 | A145G C150U C169G U176A | 0.0615
52 | A145G C150U C169G U176C | 0.11
53 | A145G C150U C169G U176G | 0.00685
54 | A145G C150U C169U | 0.382
55 | A145G C150U C169U U176A | 0.113
56 | A145G C150U C169U U176C | 0.149
57 | A145G C150U C169U U176G | 0.00803
58 | A145G C150U U176A | 0.844
59 | A145G C150U U176C | 0.821
60 | A145G C150U U176G | 0.308
61 | A145G C169A | 0.172
62 | A145G C169A U176A | 0.0412
63 | A145G C169A U176C | 0.0662

Row | Variant | reverse-splicing fitness
64 | A145G C169A U176G | 0.00541
65 | A145G C169G | 0.302
66 | A145G C169G U176A | 0.0818
67 | A145G C169G U176C | 0.14
68 | A145G C169G U176G | 0.00802
69 | A145G C169U | 0.369
70 | A145G C169U U176A | 0.123
71 | A145G C169U U176C | 0.174
72 | A145G C169U U176G | 0.0104
73 | A145G U176A | 0.863
74 | A145G U176C | 0.91
75 | A145G U176G | 0.325
76 | A145U | 0.946
77 | A145U C150A | 0.465
78 | A145U C150A C169A | 0.0212
79 | A145U C150A C169A U176A | 0.014
80 | A145U C150A C169A U176C | 0.0139
81 | A145U C150A C169A U176G | 0.00528
82 | A145U C150A C169G | 0.0369
83 | A145U C150A C169G U176A | 0.0176
